Target: T1, HLA-A*02 (Homo sapiens, UniProt P04439, D140Y/D185E/D98H/E176V/E277Q/G131W/G231S/I119V/I121R/I166T/I218V/L300P/N151K/N90K/P208A/P217A/Q86G/Q94H/R138H/R169H)
T1 construct: made in house
Assay: MHC binding assay, UV-ligand exchange with beta2m ELISA (peptide exchange yield)
Details: binding to HLA-A*02
Source text: Candidate peptides for T cell based therapies according to the present invention were further tested for their MHC binding capacity (affinity). The individual peptide-MHC complexes were produced by UV-ligand exchange, where a UV-sensitive peptide is cleaved upon UV-irradiation, and exchanged with the peptide of interest as analyzed. Only peptide candidates that can effectively bind and stabilize the peptide-receptive MHC molecules prevent dissociation of the MHC complexes. To determine the yield of the exchange reaction, an ELISA was performed based on the detection of the light chain (β2m) of stabilized MHC complexes. The assay was performed as generally described in Rodenko et al. (Rodenko et al., 2006).
96 well MAXISorp plates (NUNC) were coated over night with 2 ug/ml streptavidin in PBS at room temperature, washed 4× and blocked for 1h at 37° C. in 2% BSA containing blocking buffer. Refolded HLA-A*02:01/MLA-001 monomers served as standards, covering the range of 15-500 ng/ml. Peptide-MHC monomers of the UV-exchange reaction were diluted 100 fold in blocking buffer. Samples were incubated for 1h at 37° C., washed four times, incubated with 2 ug/ml HRP conjugated anti-32m for 1h at 37° C., washed again and detected with TMB solution that is stopped with […]. Absorption was measured at 450 nm. Candidate peptides that show a high exchange yield (preferably higher than 50%, most preferred higher than 75%) are generally preferred for a generation and production of antibodies or fragments thereof, and/or T cell receptors or fragments thereof, as they show sufficient avidity to the MHC molecules and prevent dissociation of the MHC complexes.

Row | Substance | Peptide exchange (MHC class I binding score, peptide exchange yield)
1 | 88 (AQADHLPQL; listed as Homo sapiens) [compound 88] | ++ (20%-49% = ++)
2 | 246 (TVSDVLNSV; listed as Homo sapiens) [compound 246] | +++ (50%-75% = +++)
3 | 113 (FLERGLESA; listed as Homo sapiens) [compound 113] | ++ (20%-49% = ++)
4 | 51 (LLFSRLCGA; listed as Homo sapiens) [compound 51] | ++++ (> = 75% = ++++)
5 | 81 (NALDKVLSV; listed as Homo sapiens) [compound 81] | +++ (50%-75% = +++)
6 | 255 (SLLHFTENL; listed as Homo sapiens) [compound 255] | +++ (50%-75% = +++)
7 | 66 (KLIFSVEAV; listed as Homo sapiens) [compound 66] | +++ (50%-75% = +++)
8 | 241 (KTIQQLETV; listed as Homo sapiens) [compound 241] | ++ (20%-49% = ++)
9 | 128 (TQSPATLSV; listed as Homo sapiens) [compound 128] | ++ (20%-49% = ++)
10 | 69 (FLAVGLVDV; listed as Homo sapiens) [compound 69] | +++ (50%-75% = +++)
11 | 15 (YLDLSHNQL; listed as Homo sapiens) [compound 15] | +++ (50%-75% = +++)
12 | 256 (SLGEEQFSV; listed as Homo sapiens) [compound 256] | ++ (20%-49% = ++)
13 | 125 (SLADYEHFV; listed as Homo sapiens) [compound 125] | ++++ (> = 75% = ++++)
14 | 106 (FINDSIVYL; listed as Homo sapiens) [compound 106] | +++ (50%-75% = +++)
15 | 266 (YAIGLVMRL; listed as Homo sapiens) [compound 266] | +++ (50%-75% = +++)
16 | 143 (ALLPELREV; listed as Homo sapiens) [compound 143] | +++ (50%-75% = +++)
17 | 49 (ALNIATHVL; listed as Homo sapiens) [compound 49] | +++ (50%-75% = +++)
18 | 234 (LLSPHNPAL; listed as Homo sapiens) [compound 234] | +++ (50%-75% = +++)

Continued, values first:

Row | Peptide exchange (MHC class I binding score, peptide exchange yield) | Substance
19 | +++ (50%-75% = +++) | 101 (ALADFMLSL; listed as Homo sapiens) [compound 101]
20 | +++ (50%-75% = +++) | 50 (ILFHGVFYA; listed as Homo sapiens) [compound 50]
21 | +++ (50%-75% = +++) | 70 (LLLGDSALYL; listed as Homo sapiens) [compound 70]
22 | ++++ (> = 75% = ++++) | 257 (GLYTDPCGV; listed as Homo sapiens) [compound 257]
23 | ++++ (> = 75% = ++++) | 245 (SLLDLPLSL; listed as Homo sapiens) [compound 245]
24 | +++ (50%-75% = +++) | 71 (VLHSKFWVV; listed as Homo sapiens) [compound 71]
25 | +++ (50%-75% = +++) | 114 (QLIQTLHAV; listed as Homo sapiens) [compound 114]
26 | ++++ (> = 75% = ++++) | 112 (SLGKFTFDV; listed as Homo sapiens) [compound 112]
27 | +++ (50%-75% = +++) | 119 (FIIQGLRSVGA; listed as Homo sapiens) [compound 119]
28 | ++ (20%-49% = ++) | 239 (KMNESTRSV; listed as Homo sapiens) [compound 239]

Reference: US10143730B2, “Peptides and combination of peptides for use in immunotherapy against various cancers” (immatics biotechnologies GmbH, priority 2015, dated 2018)
